Earlier results as cited in PMC2888693.

Molecular target: Tube DD (Drosophila melanogaster) (UniProt P22812)
Chain of UniProt P22812 (P22812 27-152): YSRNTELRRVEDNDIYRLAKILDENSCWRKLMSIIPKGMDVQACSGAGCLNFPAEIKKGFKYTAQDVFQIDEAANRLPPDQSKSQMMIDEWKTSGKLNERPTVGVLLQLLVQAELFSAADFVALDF

Kd: 0.5 µM
Substance: Pelle DD (from UniProt Q05652)
